Experimental data published in publication PMC9812370 (Cell Reports, 2023).

Target: SARS-CoV-2 wild-type (D614G) HexaPro S protein ectodomain (SARS-CoV-2 Wuhan-Hu-1 with D614G …, D614G)
Assay: ELISA

B1: Fab 4A8 (Fab, V domains shown)
VH: EVQLVESGAEVKKPGASVKVSCKVSGYTLTELSMHWVRQAPGKGLEWMGGFDPEDGETMYAQKFQGRVTMTEDTSTDTAYMELSSLRSEDTAVYYCATSTAVAGTPDLFDYYYGMDVWGQGTTVTVSS
VL: EIVMTQSPLSSPVTLGQPASISCRSSQSLVHSDGNTYLSWLQQRPGQPPRLLIYKISNRFSGVPDRFSGSGAGTDFTLKISRVEAEDVGVYYCTQATQFPYTFGQGTKVDIK
binding result: binds
